Blank lines part the entries; values can stand above or below the substance they belong to.
Assays:
[1] = biological target: EssB (full-length, membrane-bound, Geobacillus thermodenitrificans NG80-2) (Geobacillus thermodenitrificans NG80-2); experiment: SEC; detergent-solubilised membrane-bound protein; Superdex200 HR 30/100 GL, buffers with 0.02% DDM and 1 ug/ml DOPC
[2] = biological target: EssB-C (C-terminal extracytosolic fragment of EssB, Ala241 to Lys428) (Geobacillus thermodenitrificans NG80-2); experiment: SEC; soluble fragments; Superdex75 prep grade HR 16/60, buffer C (10 mM sodium phosphate pH 7.8, 20 mM NaCl, 0.5 mM TCEP), column calibrated with molecular mass standards
[3] = biological target: EssB-C (C-terminal extracytosolic fragment of EssB, Ala241 to Lys428) (Geobacillus thermodenitrificans NG80-2); experiment: crystal structure; EssB-C, tetragonal P4(3)2(1)2, two molecules in the asymmetric unit, 2.1 M malate pH 7.0, 3.2 Å; dimer made by crystallographic symmetry
[4] = biological target: EssB-C^Δ (C-terminally truncated extracytosolic fragment of EssB, Ala241 to Gln397) (Geobacillus thermodenitrificans NG80-2); experiment: SEC; soluble fragments; Superdex75 prep grade HR 16/60, buffer C (10 mM sodium phosphate pH 7.8, 20 mM NaCl, 0.5 mM TCEP), column calibrated with molecular mass standards
[5] = biological target: EssB-C^Δ (C-terminally truncated extracytosolic fragment of EssB, Ala241 to Gln397) (Geobacillus thermodenitrificans NG80-2); experiment: crystal structure; EssB-C^Δ, monoclinic C2, four molecules in the asymmetric unit, 3.0 M malonate pH 7.0, 10 mM ZnCl2, 2.4 Å; dimer made by crystallographic symmetry
[6] = biological target: EssB-N (N-terminal, predicted cytoplasmic fragment of EssB, Ser2 to Asp214) (Geobacillus thermodenitrificans NG80-2); experiment: native gel or EMSA; blue native PAGE, linear 4-16% gradient Native Bis-Tris gel, 3 ug purified EssB-N
[7] = biological target: EssB-N (N-terminal, predicted cytoplasmic fragment of EssB, Ser2 to Asp214) (Geobacillus thermodenitrificans NG80-2); experiment: SEC; EssB-N (2 mg) in various test buffers with 0.5% TCEP and 10% glycerol (Tris-HCl pH 7.8 with 20 mM NaCl, with or without 5 mM EDTA; phosphate pH 7.8 or Bis-Tris pH 5.5 with 300 mM NaCl), 30 min at room temperature, Superdex75 HR 30/100 GL
[8] = biological target: EssB-N (N-terminal, predicted cytoplasmic fragment of EssB, Ser2 to Asp214) (Geobacillus thermodenitrificans NG80-2); experiment: SEC; EssB-N (2 mg) in 100 mM citrate pH 5.5, 300 mM NaCl, 0.5% TCEP, 10% glycerol, 30 min at room temperature, Superdex75 HR 30/100 GL
[9] = biological target: EssB-N D54C (cysteine-free template C48S, C108S, C171S), MTSSL spin-labelled (Geobacillus thermodenitrificans NG80-2); experiment: SEC; EssB-N cysteine mutants before and after MTSSL labelling (data not shown)
[10] = biological target: EssB-N D54C (cysteine-free template C48S, C108S, C171S), before MTSSL labelling (Geobacillus thermodenitrificans NG80-2); experiment: as above
[11] = biological target: EssB^Δ (membrane-bound EssB truncated by 31 C-terminal residues) (Geobacillus thermodenitrificans NG80-2); experiment: SEC; detergent-solubilised membrane-bound protein; Superdex200 HR 30/100 GL, buffers with 0.02% DDM and 1 ug/ml DOPC
[12] = biological target: EssB^Δ D54C (cysteine-free template C48S, C108S, C171S), MTSSL spin-labelled (Geobacillus thermodenitrificans NG80-2); experiment: as above
[13] = biological target: EssB^Δ E59C (cysteine-free template C48S, C108S, C171S), MTSSL spin-labelled (Geobacillus thermodenitrificans NG80-2); experiment: as above
[14] = biological target: EssB^Δ E139C (cysteine-free template C48S, C108S, C171S), MTSSL spin-labelled (Geobacillus thermodenitrificans NG80-2); experiment: as above
[15] = biological target: EssB^Δ E197C (cysteine-free template C48S, C108S, C171S), MTSSL spin-labelled (Geobacillus thermodenitrificans NG80-2); experiment: as above
[16] = biological target: EssB^Δ E273C (cysteine-free template C48S, C108S, C171S), MTSSL spin-labelled (Geobacillus thermodenitrificans NG80-2); experiment: as above
[17] = biological target: EssB^Δ N115C (cysteine-free template C48S, C108S, C171S), MTSSL spin-labelled (Geobacillus thermodenitrificans NG80-2); experiment: as above
[18] = biological target: EssB^Δ R86C (cysteine-free template C48S, C108S, C171S), MTSSL spin-labelled (Geobacillus thermodenitrificans NG80-2); experiment: as above
[19] = biological target: EssB^Δ S93C (cysteine-free template C48S, C108S, C171S), MTSSL spin-labelled (Geobacillus thermodenitrificans NG80-2); experiment: as above

Substance: EssB (full-length, membrane-bound, Geobacillus thermodenitrificans NG80-2) (natural protein)
stoichiometry N [1]: 2

Substance: EssB-C (C-terminal extracytosolic fragment of EssB, Ala241 to Lys428) (domain or fragment)
stoichiometry N [2]: 2
stoichiometry N [3]: 2

Substance: EssB-C^Δ (C-terminally truncated extracytosolic fragment of EssB, Ala241 to Gln397) (domain or fragment)
stoichiometry N [4]: 2
stoichiometry N [5]: 2

Substance: EssB-N (N-terminal, predicted cytoplasmic fragment of EssB, Ser2 to Asp214) (domain or fragment)
stoichiometry N [6]: 2
stoichiometry N [7]: 2
percent monomeric [8]: > 10%

Substance: EssB-N D54C (cysteine-free template C48S, C108S, C171S), MTSSL spin-labelled (domain or fragment)
stoichiometry N [9]: 2

Substance: EssB^Δ (membrane-bound EssB truncated by 31 C-terminal residues) (domain or fragment)
stoichiometry N [11]: 2

Substance: EssB^Δ D54C (cysteine-free template C48S, C108S, C171S), MTSSL spin-labelled (domain or fragment)
stoichiometry N [12]: 2

Substance: EssB^Δ E59C (cysteine-free template C48S, C108S, C171S), MTSSL spin-labelled (domain or fragment)
stoichiometry N [13]: 2

Substance: EssB^Δ E139C (cysteine-free template C48S, C108S, C171S), MTSSL spin-labelled (domain or fragment)
stoichiometry N [14]: 2

Further lines, results first:

stoichiometry N [10]: 2
Substance: EssB-N D54C (cysteine-free template C48S, C108S, C171S), before MTSSL labelling (domain or fragment)

stoichiometry N [15]: 2
Substance: EssB^Δ E197C (cysteine-free template C48S, C108S, C171S), MTSSL spin-labelled (domain or fragment)

stoichiometry N [16]: 2
Substance: EssB^Δ E273C (cysteine-free template C48S, C108S, C171S), MTSSL spin-labelled (domain or fragment)

stoichiometry N [17]: 2
Substance: EssB^Δ N115C (cysteine-free template C48S, C108S, C171S), MTSSL spin-labelled (domain or fragment)

stoichiometry N [18]: 2
Substance: EssB^Δ R86C (cysteine-free template C48S, C108S, C171S), MTSSL spin-labelled (domain or fragment)

stoichiometry N [19]: 2
Substance: EssB^Δ S93C (cysteine-free template C48S, C108S, C171S), MTSSL spin-labelled (domain or fragment)
